This note sets out measurements from US20250382598A1.

Several values for one entry are separate records, joined by “and”; a condition that tells them apart may be missing. Identical values can stand only once.

The target of assay [1] is LbCas12a-Trex2 fusion (C-terminal Trex2; construct 25962) (Simian virus 40; Lachnospiraceae bacterium ND2006; Mus musculus). The experiment in a line: cell-based or functional assay.
Assay [2] deals with LbCas12a-scTrex2 fusion (single-chained Trex2 homodimer at the C-terminus; construct 27433) (Simian virus 40; Lachnospiraceae bacterium ND2006; Mus musculus). The experiment in a line: cell-based or functional assay.

For the substance “LbCas12a-Trex2 fusion (C-terminal Trex2; construct 25962) (enzyme)”, in assay [1], the 1 kb Inversion (targeted fragment inversion in transgenic maize plants) is 28 plants and 18.4%.

Consider “LbCas12a-scTrex2 fusion (single-chained Trex2 homodimer at the C-terminus; construct 27433) (enzyme)”, for which, in assay [2], the 1 kb Inversion (targeted fragment inversion in transgenic maize plants) is 1 plants and 2%; the targeted inversion frequency among the 13 plants in which both targets were edited came out at 7.7%.
